# Data taken from patent publication US20170342144A1 (Sanofi, published 2017).
# Substitutions are numbered along the chain they refer to.
# B1: S30Y (antibody, V domains shown)
# VH: QVQLVQSGAEVKKPGSSVKVSCKASGYTFYSNVISWVRQAPGQGLEWMGGVIPIVDIANYAQRFKGRVTITADESTSTTYMELSSLRSEDTAVYYCASTLGLVLDAMDYWGQGTLVTVSS
# VL: ETVLTQSPGTLSLSPGERATLSCRASQSLGSSYLAWYQQKPGQAPRLLIYGASSRAPGIPDRFSGSGSGTDFTLTISRLEPEDFAVYYCQQYADSPITFGQGTRLEIK
# notes: GC1008 IgG4 variant
# B2: Y27R (antibody, V domains shown)
# VH: B1 VH with Y27R, Y30S
# VL: B1 VL
# notes: GC1008 IgG4 variant
# B3: S31K (antibody, V domains shown)
# VH: B1 VH with Y30S, S31K
# VL: B1 VL
# notes: GC1008 IgG4 variant
# B4: S31G (antibody, V domains shown)
# VH: B1 VH with Y30S, S31G
# VL: B1 VL
# notes: GC1008 IgG4 variant
# B5: Y27P (antibody, V domains shown)
# VH: B1 VH with Y27P, Y30S
# VL: B1 VL
# notes: GC1008 IgG4 variant
# B6: Y27L (antibody, V domains shown)
# VH: B1 VH with Y27L, Y30S
# VL: B1 VL
# notes: GC1008 IgG4 variant
# B7: Y27G (antibody, V domains shown)
# VH: B1 VH with Y27G, Y30S
# VL: B1 VL
# notes: GC1008 IgG4 variant
# B8: S31T (antibody, V domains shown)
# VH: B1 VH with Y30S, S31T
# VL: B1 VL
# notes: GC1008 IgG4 variant
# B9: S31L (antibody, V domains shown)
# VH: B1 VH with Y30S, S31L
# VL: B1 VL
# notes: GC1008 IgG4 variant
# B10: S31E (antibody, V domains shown)
# VH: B1 VH with Y30S, S31E
# VL: B1 VL
# notes: GC1008 IgG4 variant
# B11: Y27D (antibody, V domains shown)
# VH: B1 VH with Y27D, Y30S
# VL: B1 VL
# notes: GC1008 IgG4 variant
# B12: Y27A (antibody, V domains shown)
# VH: B1 VH with Y27A, Y30S
# VL: B1 VL
# notes: GC1008 IgG4 variant
# B13: S31A (antibody, V domains shown)
# VH: B1 VH with Y30S, S31A
# VL: B1 VL
# notes: GC1008 IgG4 variant
# B14: Y27E (antibody, V domains shown)
# VH: B1 VH with Y27E, Y30S
# VL: B1 VL
# notes: GC1008 IgG4 variant
# B15: Y27M (antibody, V domains shown)
# VH: B1 VH with Y27M, Y30S
# VL: B1 VL
# notes: GC1008 IgG4 variant
# B16: Y27W (antibody, V domains shown)
# VH: B1 VH with Y27W, Y30S
# VL: B1 VL
# notes: GC1008 IgG4 variant
# B17: S31V (antibody, V domains shown)
# VH: B1 VH with Y30S, S31V
# VL: B1 VL
# notes: GC1008 IgG4 variant
# B18: Y27I (antibody, V domains shown)
# VH: B1 VH with Y27I, Y30S
# VL: B1 VL
# notes: GC1008 IgG4 variant
# B19: S31R (antibody, V domains shown)
# VH: B1 VH with Y30S, S31R
# VL: B1 VL
# notes: GC1008 IgG4 variant
# B20: Y27N (antibody, V domains shown)
# VH: B1 VH with Y27N, Y30S
# VL: B1 VL
# notes: GC1008 IgG4 variant
# B21: Y27K (antibody, V domains shown)
# VH: B1 VH with Y27K, Y30S
# VL: B1 VL
# notes: GC1008 IgG4 variant
# B22: Y27S (antibody, V domains shown)
# VH: B1 VH with Y27S, Y30S
# VL: B1 VL
# notes: GC1008 IgG4 variant
# B23: Y27T (antibody, V domains shown)
# VH: B1 VH with Y27T, Y30S
# VL: B1 VL
# notes: GC1008 IgG4 variant
# B24: Y27F (antibody, V domains shown)
# VH: B1 VH with Y27F, Y30S
# VL: B1 VL
# notes: GC1008 IgG4 variant
# B25: Y27Q (antibody, V domains shown)
# VH: B1 VH with Y27Q, Y30S
# VL: B1 VL
# notes: GC1008 IgG4 variant
# B26: Y27V (antibody, V domains shown)
# VH: B1 VH with Y27V, Y30S
# VL: B1 VL
# notes: GC1008 IgG4 variant
# B27: S31H (antibody, V domains shown)
# VH: B1 VH with Y30S, S31H
# VL: B1 VL
# notes: GC1008 IgG4 variant
# B28: S31Q (antibody, V domains shown)
# VH: B1 VH with Y30S, S31Q
# VL: B1 VL
# notes: GC1008 IgG4 variant
# B29: S31P (antibody, V domains shown)
# VH: B1 VH with Y30S, S31P
# VL: B1 VL
# notes: GC1008 IgG4 variant
# B30: V55G (antibody, V domains shown)
# VH: B1 VH with Y30S, V55G
# VL: B1 VL
# notes: GC1008 IgG4 variant
# Molecular target: T1, human TGFβ3 (human, UniProt P10600 301-412)
# T1 sequence: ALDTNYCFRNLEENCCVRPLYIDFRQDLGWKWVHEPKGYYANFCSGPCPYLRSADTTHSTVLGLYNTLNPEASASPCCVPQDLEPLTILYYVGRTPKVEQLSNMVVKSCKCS
# Experiment: Biacore off-rate vs wt GC1008, 50 nM
# Outline: (§1)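 Surface plasmon resonance on a Biacore 3000 measured how fast purified antibody variants dissociated from TGFβ isoforms immobilized at about 100 RU. Variants carried single heavy- or light-chain substitutions and were produced by transient Expi293F transfection with Protein A cleanup. Samples at 50 nM were tested in duplicate, and each variant kd was divided by the wild-type control kd to give fold change.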
row,kd var/kd wt,Binder
1,0.8,B1
2,1.7,B2
3,1.4,B3
4,1.1,B4
5,1.4,B5
6,1.1,B6
7,1.3,B7
8,1.5,B8
9,1.5,B9
10,1.4,B10
11,1.2,B11
12,1.5,B12
13,1.1,B13
14,1.1,B14
15,1.3,B15
16,1.4,B16
17,1.4,B17
18,1.1,B18
19,1.5,B19
20,1.3,B20
21,1.3,B21
22,1.6,B22
23,1.5,B23
24,1.1,B24
25,1.4,B25
26,1.5,B26
27,1.4,B27
28,1,B28
29,1.2,B29
30,1.9,B30

# Molecular target: T2, human TGFβ2 (human, UniProt P61812 303-414)
# T2 construct: also called TGFβ2 homodimer
# T2 sequence: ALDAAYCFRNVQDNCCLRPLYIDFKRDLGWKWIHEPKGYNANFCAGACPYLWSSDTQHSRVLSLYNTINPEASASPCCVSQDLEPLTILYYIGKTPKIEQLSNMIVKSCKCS
# Experiment: Biacore off-rate vs wt GC1008, 50 nM
# Outline: as §1
row,kd var/kd wt,Binder
1,0.9,B1
2,1.5,B2
3,1.2,B3
4,1.2,B4
5,1.4,B5
6,1.4,B6
7,1.4,B7
8,1.2,B8
9,1.2,B9
10,1.4,B10
11,1.3,B11
12,1.4,B12
13,1.2,B13
14,1.4,B14
15,1.4,B15
16,1.3,B16
17,1,B17
18,1.3,B18
19,1.2,B19
20,1.3,B20
21,1.4,B21
22,1.5,B22
23,1.4,B23
24,1.2,B24
25,1.4,B25
26,1.6,B26
27,1.3,B27
28,1,B28
29,1.2,B29
30,1.9,B30

# Molecular target: T3, human TGFβ1 (human, UniProt P01137 279-390)
# T3 construct: also called TGFβ1 homodimer
# T3 sequence (P01137 279-390 limits assumed): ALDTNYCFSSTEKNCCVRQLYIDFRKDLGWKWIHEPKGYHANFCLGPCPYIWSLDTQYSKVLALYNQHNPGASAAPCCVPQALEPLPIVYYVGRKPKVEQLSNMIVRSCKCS
# Experiment: Biacore off-rate vs wt GC1008, 50 nM
# Outline: as §1
row,kd var/kd wt,Binder
1,1,B1
2,2.3,B2
3,1.8,B3
4,1.1,B4
5,1.7,B5
6,1.4,B6
7,1.5,B7
8,1.6,B8
9,2,B9
10,1.7,B10
11,1.2,B11
12,1.6,B12
13,1.2,B13
14,1.2,B14
15,1.3,B15
16,1.4,B16
17,1.4,B17
18,1.3,B18
19,1.4,B19
20,1.3,B20
21,1.9,B21
22,1.6,B22
23,1.4,B23
24,1.3,B24
25,1.5,B25
26,1.7,B26
27,1.5,B27
28,1.5,B28
29,1.5,B29
30,1.8,B30
